In patent US12559545 (VANDERBILT UNIVERSITY, dated 2026):

T1: HeV-G
T1 chain: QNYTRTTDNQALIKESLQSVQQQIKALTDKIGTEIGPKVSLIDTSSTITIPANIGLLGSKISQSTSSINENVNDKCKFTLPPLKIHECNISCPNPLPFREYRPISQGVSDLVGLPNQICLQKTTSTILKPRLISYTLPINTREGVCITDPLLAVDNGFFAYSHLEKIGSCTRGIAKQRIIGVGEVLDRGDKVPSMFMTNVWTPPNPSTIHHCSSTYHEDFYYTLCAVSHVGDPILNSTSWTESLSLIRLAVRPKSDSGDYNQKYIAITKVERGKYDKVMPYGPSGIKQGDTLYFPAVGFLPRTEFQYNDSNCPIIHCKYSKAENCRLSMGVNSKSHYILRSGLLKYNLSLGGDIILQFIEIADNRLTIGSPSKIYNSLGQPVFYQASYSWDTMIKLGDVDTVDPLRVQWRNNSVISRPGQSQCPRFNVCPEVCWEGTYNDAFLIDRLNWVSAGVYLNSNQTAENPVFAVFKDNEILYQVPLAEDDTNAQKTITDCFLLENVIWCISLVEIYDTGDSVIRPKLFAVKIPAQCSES

T2: NiVM-G
T2 chain: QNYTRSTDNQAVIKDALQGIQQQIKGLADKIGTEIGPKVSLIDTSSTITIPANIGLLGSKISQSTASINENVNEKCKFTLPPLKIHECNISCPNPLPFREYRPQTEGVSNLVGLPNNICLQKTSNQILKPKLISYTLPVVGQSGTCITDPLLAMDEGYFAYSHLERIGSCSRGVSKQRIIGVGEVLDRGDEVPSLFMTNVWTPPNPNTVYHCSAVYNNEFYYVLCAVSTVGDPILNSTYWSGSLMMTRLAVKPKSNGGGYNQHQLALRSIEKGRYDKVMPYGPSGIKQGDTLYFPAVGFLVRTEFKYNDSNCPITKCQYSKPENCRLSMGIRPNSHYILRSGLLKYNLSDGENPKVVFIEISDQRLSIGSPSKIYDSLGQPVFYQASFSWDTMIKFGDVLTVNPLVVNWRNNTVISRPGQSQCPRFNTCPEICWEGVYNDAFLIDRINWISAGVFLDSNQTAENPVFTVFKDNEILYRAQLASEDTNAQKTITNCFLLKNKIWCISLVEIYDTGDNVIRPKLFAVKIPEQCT


What was measured:
HeV-G = molecular target: T1, HeV-G
NiVM-G = molecular target: T2, NiVM-G

Binder	EC50 (HeV-G) [pM]	EC50 (NiVM-G) [pM]
HENV-184 (antibody, V domains shown) VH: QVQLVQSGTEVKNPGSSVKVSCKASGGTFSGFGISWVRQAPGQGLEWMGGVLPIFGSPNYAQKFQGRVTITADESTGTAYMDLSSLRSDDTAMYYCARDQSGGFFDYWGQGTLVIVSS VL: EIVLTQSPATLSLSPGERATLSCRASQSVSSNLAWYQQKPGQAPRLLIYDASDRATGVPARFSGSGSGTDFTLTISSLEPEDFALYYCQQRYNWRVTFGQGTRLEIK	1190	622
HENV-222 (antibody, V domains shown) VH: QVQLQESGPGLVKPSETLSLTCTVSGGSIDSYYWSWIRQPAGKGLEWIGRIYPSGTTNYNPSLKSRVTMSVDTSKNQFSLKVTSVTAADTAVYYCARMQTGFGSSLFFVPYFDNWGQGTLVTVSS VL: EIVLTQSPATLSLSPGERATLSCRASQSVSSYLAWYQQKPGQAPRLLIYDASNRATGIPARFSGSGSGTDFTLTISSLEPEDFAVYYCQQRGNWPLTFGGGTKVEIK	5660	586
HENV-98 (antibody, V domains shown) VH: AVQLVESGGGLVQPGGSLRLSCEASGFTFSGYWMSWVRQAPGKGLEWVANIKGDGSEKYYVDSVKGRFTIFRDNAKTSLYLQVNSLRAEDTAVYYCARERHFLAARPGYYIYSGLDVWGPGTTVTVSS VL: DIQMTQSPSSLSASVGDRVTITCRASQSIDNYLNWYQQKPGKVPKLLIYAASNLQSGVPSKFSGGGSGTDFTLTISSLQPDDFATYYCQQSFGTPRTFGQGTRVEIK	434	396
HENV-99 (antibody, V domains shown) VH: QVLLVQSGAEVRKPGASVKVSCRASGYTFTDYYMHWVRQAPGQGLEWMGWINPNSGATKYAQKFQGRVTLTRDTSINTAYMELSGLRSVDTAVFYCASVPPSGFFYWGSDYWGQGTLVTVSS VL: DVVLTQSPLSLPVTLGQPASISCRSSQSLVYSDGTTYLNWFQQRPGQSPRRLIYKVSYRDSGVPDRFSGSGSGTDFTLEISRVEAEDVGIYYCMHGTHWETWTFGQGTKVEIK	420	294
HENV-100 (antibody, V domains shown) VH: QVQLVQSGAEVKKPGASVKVSCKASGYTFTSYYINWVRQAPGQGLEWVGTINPSGGSTTYAQKFQGRVTVTRDTSTSTVYMDLSGLRSGDTAVYYCARDRKGLAATPVYSDYYYGMDVWGQGTTVTVSS VL: EIVLTQSPATLSLSPGERATLSCRASQSVSSFLAWYQQKPGQAPRLLISDASKRATGIPARFSGSGSGTDFSLTISSLEAEDFAVYYCQQSTNWRITFGQGTRLELK	469	316
HENV-117 (antibody, V domains shown) VH: QVQLQQWGAGLLKPSETLSLTCDLSGGSFTNYYWTWIRHLPGKGLEWLGEINHSGRTNYSPSLKSRVTISVDTSKNQFSLRLSSVTAADTAVYYCARDIRKLAPKPHSYDLYYGMDVWGQGTTVTVSS VL: EIVLTQSPGTLSLSPGERATLSCRASQSVGSNYLTWYQQKPGQPPRLLIYGASNRAAGIPDRFSGSGSGTDFTLTISRLEPEDFAVYYCQQYETSSRTFGQGTKVDIR	1060	1230
HENV-103 (antibody, V domains shown) VH: QVQLQGSGPGLVKPSQTLSLTCSVSGGSVSRSGYYWGWIRQHPGKGLECIGYIYYSGITYYNPSLSGRLTISVDTSKNQFSLELSSVTAADTAVYYCARVWLGGGVFDFWGQGSLVTVSS VL: EIVMTQSPATLSVSPGEGATLSCRASQSVSSNLAWYQQKPGQAPRLLIYDASTRATGIPARFSGSGSGTEFTLTISSLQSEDFAVYYCQQYNDWRTFGRGTKVEMR	806	611
HENV-58 (antibody, V domains shown) VH: QVQLVQSGAEVKKPGSSVKVSCKASGGTFSNYVISWVRQAPGQGFEWMGRIIPMIGISNYAQKFQDRVTITADKDESTTTAYMELRGLRSEDTAMYYCASSTVTEVGAWGQGTLVTVSS VL: AIQLTQSPSSLSASIGDRVTITCRASQGISSALAWFQQKPGKPPILLIYDASSLESGVPARFSGSGSGTDFTLTISSLQPEDFATYYCQQFYNHPLTFGPGTKVDIK	1140	739
HENV-122 (antibody, V domains shown) VH: EVQLLESGGGLVQPGGSLRLSCAASGFTFSTNAMSWVRQAPGKGLEWVSTVSGSGAHPNYGDSVKGRFTISRVNSKNTLFLQMSSLRAEDTAIYYCARVSTVTVGGHIPRGYYFDYWGQGTLVTVSS VL: EILLTQSPGTLSLSPGERATLSCRASQSASSSYLAWYQQKPGQAPRLLIYGASTRATGIPDRFSGSGSGTEFTLTISRLESEDFAVYYCHHYGSSRTFGQGTKVEVK	387	407
HENV-170 (antibody, V domains shown) VH: EVQLLESGGGLVQPGGSLRLSCAASGFTFSSYTMSWVRQAPGKGLEWVSGISGSGGNTYYAGSVKGRFTISRDNSKNTLYLQMNSLRAEDTAVYYCAKDGYTGQQLMRRGPWWFDPWGQGTLVTVSS VL: SYVLTQPPSVSVAPGQTARITCGGNNIGSKSVHWYQQKPGQAPVLVVYDDSDRPSGIPERFSGSKSGNTATLTISRVEAGDEADYYCQVWDSSSDHVVFGGGTKLTVL	518	378
HENV-150 (antibody, V domains shown) VH: EVQLLESGGGLVQPGGSLRLSCAASGFTFSSSAMSWVRQTPGKGLEWVSTISGSGANTYYAASVKGRFPISRDNSKNTLFLQMNSLRAEDTAVYYCAKVSTVTFGGHVPRGSYFDYWGQGTQVTVSS VL: SYVLTQPPSVSVAPGQTARIPCGGNNIGSKSVHWYQQKPGQAPVLVVYDENDRPSGIPERFSASKSGNTATLTISRVEAGDEADYYCQVWDSRSDHYVFGTGTKVTVL	328	270
HENV-242 (antibody, V domains shown) VH: QVQLVQSGAEVKKPGSSVTVSCKTSGGTFSGYAVSWVRQAPGQGLEWMGRIVPQFNIPNYAQKFQDRVTITADESTGTSYMELSSLRSDDTAVFYCARENIQTIFGVVAMMGGGGYFDSWGQGTLVTVSS VL: DIQMTQSPSSLSASVGDRVTITCQANQDINTYLNWYLQKPGKAPQLLVFDASNLVTGVPSRFSGGGSRTDFTLTIDSLQPEDIGTYYCQQYDHLPRRTFTFGPGTKVDLK	6600	716
HENV-142 (antibody, V domains shown) VH: QVRLQESGPRLVKPSQTLSLTCTVSGGSISSRDYYWSWIRQHPGKGLEWIGYIYYSGTTYYNPSLESRVTLSLDTSKNQFSLDLTSVTAADTAVYHCARVWLGGGVFDFWGQGTLVTVSA VL: EIVMTQSPDTLSVSPGERATLSCRASHSVTTNLAWYQQRPGQAPRLLIFDASTRATGIPARFSGSGSGTEFTLTIGSLQSEDFAVYYCQQYNDGRTFGQGTKVEIK	1860	1030
HENV-226 (antibody, V domains shown) VH: EERLVQSGGGLAQPGQSLRLSCAGFGFTFTRYEMNWVRQAPGKGLEWIAHISTRGDTISYADSVKGRATISRDDTNNSLDLQMDSLRAEDTAIYFCARDRGSLSTRPPDSYHYYYHGMDVWGQGTTVIVSS VL: EIVLTQSPATLSLSPGERATLSCRASQSIDTYLAWYQQKPGQAPRLLIYDASNRATGIPARFSGSGSGTDFSLTISSLEPDDFAVYYCQQRSNRPPRYTFGLGTRLEIK		259
HENV-141 (antibody, V domains shown) VH: QVQLVQSGAEVKKPGSSVKVSCKASGGTFSSYTISWVRQAPGQGLEWMGRIIPISGITNYAQKFQGRVTITADKSTSTAYMELSSLRSEDTAVYYCAKDCYYGSGTYYGCRADYQWHHTMDVWGQGTTVTVSS VL: DIQMTQSPSSLSASVGDRVTITCRASQGIRNDLGWFQQKPGKAPKRLIYAASSLQSGVPSRFSGSGSGTEFTLTISSLQPEDFATYFCLQHNTYPLTFGQGTKVEIK	326	266
